Results: PMC9581999

Biological target: FKBP12-rapamycin binding domain of mTOR (FRB)

- bioluminescence of the single-chain molecular strain probe F-R86SG-F (FRB-RLuc86SG-FKBP) in COS-7 cells, 10^-6 M rapamycin for 5 h against vehicle (0.1% DMSO), substrate K5; fold intensity: 1.6 fold
- bioluminescence of the single-chain molecular strain probe F-R86SG-F (FRB-RLuc86SG-FKBP) in COS-7 cells, 10^-6 M rapamycin for 5 h against vehicle (0.1% DMSO), substrate K6; fold intensity: 3.1 fold
Substance: FK506 binding protein (FKBP) (from UniProt P62942 1-108) (natural protein)
